Experiment [1] addresses T1, hPD-L1-his (human, UniProt Q9NZQ7 19-238, limits assumed).
T1 construct: also called human PD-L1; not shown: his tag
Briefly: ELISA, hPD-L1-his coated, anti-human IgG (Fc-specific)-peroxidase detection. For orientation: An ELISA detects its analyte on a solid surface through an enzyme-linked reagent.

For experiment [2], the target named is T2, human PD-L1 extracellular domain protein (human, UniProt Q9NZQ7 19-238, biotin (biotin-NHS, molar ratio 1:10) where used as biotin-labeled human PD-L1 (Examples 2, 3, 5, 12, 17)).
T2 construct: extracellular domain; About 75 kDa on SDS-PAGE; also called human PD-L1 recombinant protein; biotin-labeled human PD-L1
Briefly: ForteBio (BLI). For orientation: Biolayer interferometry detects binding as a change in optical thickness at a sensor tip.

Experiment [3] deals with T3, human PD-L1 (ELISA coat, construct not stated) (human, UniProt Q9NZQ7 19-238, limits assumed).
T3 construct: also called human PD-L1 protein
Briefly: ELISA, PD-L1 coated. As for the experimental part: A 96-well microtiter plate was plated, coated with PD-L1, and incubated at 37° C. for 60 minutes. The solution in the wells was then discarded, and the wells were washed 3 times with washing buffer, and blocked with PBS containing 2% BSA for 60 minutes. After washed 3 times with washing buffer, each well was added with 100 μl of biotin-labeled IgG4 antibody, incubated at 37° C. for 30 minutes, washed 3 times with washing buffer, then added with humanized antibodies of different dilutions, and incubated at 37° C. for 1 hour. After washed 3 times with washing buffer, the cells were incubated with HPR-labeled mouse anti-human IgG (H+L) (diluted 1:10000 with washing buffer) at room temperature for 1 hour, washed 3 times with washing buffer, and then added with 100 μl of TMB substrate for development. After reacting for 30 minutes at room temperature, the reaction was terminated with 100 μl of 2 M hydrochloric acid solution and the absorbance was read at 450 nm.

The target of experiment [4] is PD-L1 on CHO cells (human, UniProt Q9NZQ7 19-290). The experiment in a line: cell-based or functional assay.
Experiment [5] has as its target T4, PD-L1 on 293F cells (UniProt Q9NZQ7 19-290, limits assumed).
T4 construct: whole, on cells
The experiment in a line: flow cytometry on 293F cells expressing PD-L1. Here is the method: Antibody (humanized antibodies 30, 38) dilutions at different concentrations was added in a volume of 50 μl, mixed and incubated at room temperature for 30 min. The cells were washed twice with FACS buffer, contacted with 100 μl of goat anti-human IgG-PE antibody, and incubated for 30 min in the dark. FACS was performed after washing twice with FACS buffer.
In general terms: In flow cytometry, cells or beads pass a laser one at a time.

Experiment [6] deals with T2, human PD-L1 extracellular domain protein. Briefly: flow cytometry, inhibition of biotin-PD-L1 (1 µg/ml) binding to PD-1 on 293F cells.

T2 sequence (Q9NZQ7 19-238): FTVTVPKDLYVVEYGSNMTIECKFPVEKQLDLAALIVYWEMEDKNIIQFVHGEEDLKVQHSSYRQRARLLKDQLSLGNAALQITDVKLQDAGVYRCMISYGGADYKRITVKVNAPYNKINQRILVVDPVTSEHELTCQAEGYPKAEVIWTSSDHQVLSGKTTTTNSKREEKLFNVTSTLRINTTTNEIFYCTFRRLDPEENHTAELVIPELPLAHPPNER
T1 sequence (Q9NZQ7 19-238 limits assumed): as the sequence (Q9NZQ7 19-238) above
T3 sequence (Q9NZQ7 19-238 limits assumed): as the sequence (Q9NZQ7 19-238) above
PD-L1 on CHO cells, sequence (Q9NZQ7 19-290): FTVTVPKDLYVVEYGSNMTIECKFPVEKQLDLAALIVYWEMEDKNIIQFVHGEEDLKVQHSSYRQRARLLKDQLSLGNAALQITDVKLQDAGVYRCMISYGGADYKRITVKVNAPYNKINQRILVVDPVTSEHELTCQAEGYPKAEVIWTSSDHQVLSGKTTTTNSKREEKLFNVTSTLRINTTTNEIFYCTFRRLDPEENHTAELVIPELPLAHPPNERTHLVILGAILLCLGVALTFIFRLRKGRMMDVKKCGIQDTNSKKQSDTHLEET
T4 sequence (Q9NZQ7 19-290 limits assumed): as the sequence (Q9NZQ7 19-290) above

Molecule durvaluma (antibody) returned an EC50 in experiment [1] of 0.0216 µg/mL.

B1: clone 16 (murine antibody 16) (antibody, V domains shown)
VH: EVQLQQSGPELVKPGASVKMSCKASGYTFTNYVIHWVKQTPGQGLEWIGYINPNIDGGSYNEKFNGKAKMTSDKSSSTVHMELRSLTYEDFAVYYCAKPRGSWGQGTLVTVSA
VL: DIVLTQSPASLAVSLGQRATISCRASESVEFYGTSLMQWYQQKPGQPPKLLIYAASNVDSGVPARFSGSGSGTDFSLNIHPVEEDDIAMYFCQQGRHVPYTFGGGTKLEIK
notes: Murine hybridoma antibody
As to B1, the Kd in experiment [2] is 0.5 nM.

B2: clone 21 (murine antibody 21) (antibody, V domains shown)
VH: EGQLQESGPSLVKPSQTLSLTCSVTGDSITRGYWNWIRKFPGNKFEYMGYISYTGSTYSNLSLKSRISITRDTSKNHYYLRLNSVTTEDTATYYCATSTGWLDPVDYWGQGTLVTVSA
VL: DIVMTQSRKFMSTSVGDRASVTCKASQNVDTSVAWFQQKPGQSPKALIYSASFRYSGVPDRFTGSGSGTDFTLTISNVQSEDLAEYFCQQYYGYPFTFGSGTKLEIK
notes: Murine hybridoma antibody
For the molecule B2, the Kd in experiment [2] came to 0.9 nM.

B3: humanized antibody 38 (antibody, V domains shown)
VH: QGQLQESGPSLVKPSQTLSLTCTVSGDSITRGYWNWIRKPPGKGLEYIGYISYTGSTYSNLSLKSRVTISRDTSKNQYYLKLSSVTAADTAVYYCATSTGWLDPVDYWGQGTLVTVSS
VL: DIQMTQSPSSLSASVGDRVTITCRASQNVDTSVAWFQQKPGKAPKALIYSASFRYSGVPSRFSGSGSGTDFTLTISSLQPEDFATYFCQQYYGYPFTFGQGTKLEIK
As for B3, the EC50 in experiment [3] was determined as 0.000837 µg/mL; in experiment [5], 0.348 µg/mL. In experiment [4], the “EC50, Jurkat fluorescein (PD-1/NFAT-luciferase reporter) analysis” value is 0.082 µg/mL. Further, the IC50 in experiment [6] amounted to 0.889 µg/mL.

B4: humanized antibody 30 (antibody, V domains shown)
VH: QGQLQESGPSLVKPSQTLSLTCTVSGDSITRGYWNWIRKHPGKGLEYIGYISYTGSTYSNLSLKSRVTISRDTSKNQYYLKLSSVTAADTAVYYCATSTGWLDPVDYWGQGTLVTVSS
VL: DIVMTQSPDSLAVSLGERATINCKASQNVDTSVAWFQQKPGQPPKALIYSASFRYSGVPDRFSGSGSGTDFTLTISSLQAEDVAVYFCQQYYGYPFTFGQGTKLEIK
For B4, the values for the EC50 in experiment [3], in experiment [5] and in experiment [1] were 0.000558 µg/mL, 0.287 µg/mL and 0.0111 µg/mL, respectively. In addition, the “EC50, Jurkat fluorescein (PD-1/NFAT-luciferase reporter) analysis” value in experiment [4] worked out at 0.0782 µg/mL. Besides, the IC50 in experiment [6] came to 0.647 µg/mL.

Usually EC50 stands for the concentration giving half of the maximal effect. Low values mean greater potency, high ones weaker potency. As a reminder, the Kd is the concentration at which binding is half-saturated. Broadly, the IC50 is the point on the concentration scale where inhibition reaches its midpoint.

Values taken from US20190367618A1 (SHANGHAI JUNSHI BIOSCIENCES, published 2019).
